Source: US20070178531A1 (BIOCHECK, published 2007)

What was measured:
Mouse Id4: Histidine = target: T1, Mouse Id4: Histidine (mouse, UniProt P41139 1-161, limits assumed); assay: ELISA on coated wells, summary
T1 construct: Fusion protein made in E. coli from vector pGW07; also called m-Id4: His; not shown: His tag
T1 sequence (looked up): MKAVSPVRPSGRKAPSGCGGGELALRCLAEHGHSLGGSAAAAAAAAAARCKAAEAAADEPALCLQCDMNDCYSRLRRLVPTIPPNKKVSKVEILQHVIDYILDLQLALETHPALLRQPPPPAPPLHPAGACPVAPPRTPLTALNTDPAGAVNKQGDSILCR

Human Id2: Histidine = target: T2, Human Id2: Histidine (human, UniProt Q02363 1-134, limits assumed); assay: ELISA on coated wells, summary
T2 construct: Fusion protein made in E. coli from vector pGW07; also called h-Id2: His; not shown: His tag
T2 sequence (looked up): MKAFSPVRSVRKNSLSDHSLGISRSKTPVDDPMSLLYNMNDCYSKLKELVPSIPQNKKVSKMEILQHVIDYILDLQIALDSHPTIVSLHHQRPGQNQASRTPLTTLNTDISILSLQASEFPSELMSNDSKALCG

B1: rabbit monoclonal anti-human Id3, clone #BCH-4/#3-3 (antibody, V domains shown)
VH: QSVEESGGRLVTPGTPLTLTCTVSGIDLSSYAMSWVRQAPGKGLEWIGVIFPSNNVYYASWAKGRFTISKTSTTVDLKITSPTTEDTATYFCASMGAFDSWGPGTLVTVSS
VL: QVLTQTPSPVSAAVGGTVTINCQASQSIYNDNDLAWFQQKPGQPPKLLIYDASTLTSGVPSRFKGSGSGTQFTLTISDLDCDDAATYYCAARYSGNIYGFGGGTEVVVK
notes: Rabbit IgG from a rabbit hybridoma; also called h Id3 MoAb 3-3
Cross-reactivity (%) (Mouse Id4: Histidine): < 1% | Cross-reactivity (%) (Human Id2: Histidine): < 1%
